Data published in PMC9482650, “Quantitative fragmentomics allow affinity mapping of interactomes” (Nature Communications, 2022).
Blank lines part the entries; values can stand above or below the binder they belong to.

Tests used:
Assay in all cases: holdup assay
Design in all cases: key: below the threshold = too weak to quantify, mostly under pKd 3.1 to 4
[1] = biological target: T1, ARHGAP21, Q5T5U3
T1 sequence (Q5T5U3 45-169, limits assumed, looked up): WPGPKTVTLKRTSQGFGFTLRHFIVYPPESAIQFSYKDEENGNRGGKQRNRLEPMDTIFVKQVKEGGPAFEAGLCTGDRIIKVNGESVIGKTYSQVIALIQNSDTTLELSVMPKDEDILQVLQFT

[2] = biological target: T2, DFNB31_2, Q9P202
T2 sequence (Q9P202 274-371, limits assumed, looked up): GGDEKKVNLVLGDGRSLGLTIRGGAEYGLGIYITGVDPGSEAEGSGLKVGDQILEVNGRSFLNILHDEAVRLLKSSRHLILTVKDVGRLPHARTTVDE

[3] = biological target: T3, DFNB31_3, Q9P202
T3 sequence (Q9P202 811-907, limits assumed, looked up): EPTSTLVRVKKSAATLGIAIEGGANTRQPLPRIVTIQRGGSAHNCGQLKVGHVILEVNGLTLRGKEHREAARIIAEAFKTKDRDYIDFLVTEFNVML

[4] = biological target: T4, DLG3_2, Q92796
T4 sequence (Q92796 221-321, limits assumed, looked up): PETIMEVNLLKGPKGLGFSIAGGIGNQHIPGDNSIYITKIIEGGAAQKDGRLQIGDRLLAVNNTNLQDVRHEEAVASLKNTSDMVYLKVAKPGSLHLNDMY

[5] = biological target: FRMPD3, Q5JV73
[6] = biological target: T5, GRIP1_4, Q9Y3R0
T5 sequence (Q9Y3R0 467-571, limits assumed, looked up): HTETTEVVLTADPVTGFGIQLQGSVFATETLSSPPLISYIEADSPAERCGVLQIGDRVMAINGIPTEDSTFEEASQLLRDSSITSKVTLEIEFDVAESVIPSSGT

[7] = biological target: GRIP2_6, Q9C0E4
[8] = biological target: HTRA1, Q92743
[9] = biological target: IL16_1, Q14005
[10] = biological target: Inadl_3, Q8NI35
[11] = biological target: Inadl_4, Q8NI35
[12] = biological target: LIMK2, P53671
[13] = biological target: MAGI2_2, Q86UL8
[14] = biological target: MAGI3_2, Q5TCQ9
[15] = biological target: T6, MPDZ_10, O75970
T6 sequence (O75970 1624-1722, limits assumed, looked up): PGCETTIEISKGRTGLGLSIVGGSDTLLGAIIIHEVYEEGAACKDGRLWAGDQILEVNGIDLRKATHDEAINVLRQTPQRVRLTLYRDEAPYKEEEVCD

[16] = biological target: T7, MPDZ_12, O75970
T7 sequence (O75970 1857-1958, limits assumed, looked up): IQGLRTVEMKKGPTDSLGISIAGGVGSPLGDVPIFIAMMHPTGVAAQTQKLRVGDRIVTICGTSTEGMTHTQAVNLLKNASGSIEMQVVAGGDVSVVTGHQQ

[17] = biological target: T8, MPDZ_5, O75970
T8 sequence (O75970 695-796, limits assumed, looked up): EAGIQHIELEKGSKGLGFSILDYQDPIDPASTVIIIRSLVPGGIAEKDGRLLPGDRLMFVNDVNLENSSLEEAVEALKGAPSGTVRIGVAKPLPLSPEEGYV

[18] = biological target: T9, MPP7, Q5T2T1
T9 sequence (Q5T2T1 134-230, limits assumed, looked up): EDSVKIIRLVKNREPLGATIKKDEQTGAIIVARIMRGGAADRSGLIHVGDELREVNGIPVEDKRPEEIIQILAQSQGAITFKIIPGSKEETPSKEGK

[19] = biological target: PDLIM1, O00151
[20] = biological target: T10, PDZD2_2, O15018
T10 sequence (O15018 329-429, limits assumed, looked up): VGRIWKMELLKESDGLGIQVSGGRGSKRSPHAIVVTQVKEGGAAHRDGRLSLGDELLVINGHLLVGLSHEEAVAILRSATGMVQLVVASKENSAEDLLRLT

[21] = biological target: T11, PDZRN3_1, Q9UPQ7
T11 sequence (Q9UPQ7 244-349, limits assumed, looked up): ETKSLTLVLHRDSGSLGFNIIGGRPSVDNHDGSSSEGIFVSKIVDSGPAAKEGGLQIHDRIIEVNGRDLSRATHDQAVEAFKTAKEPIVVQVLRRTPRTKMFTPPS

[22] = biological target: T12, SNTA1, Q13424
T12 sequence (Q13424 82-180, limits assumed, looked up): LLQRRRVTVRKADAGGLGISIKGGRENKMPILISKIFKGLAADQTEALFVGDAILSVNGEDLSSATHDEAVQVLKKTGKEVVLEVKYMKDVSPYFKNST

[23] = biological target: TJP1_2, Q07157
[24] = biological target: T13, TX1BP3, O14907
T13 sequence (O14907 10-122, limits assumed, looked up): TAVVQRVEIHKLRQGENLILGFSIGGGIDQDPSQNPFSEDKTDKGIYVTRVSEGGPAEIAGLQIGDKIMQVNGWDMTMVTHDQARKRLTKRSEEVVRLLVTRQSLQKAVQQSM

[25] = plain residues with an end cap or a label only (N-terminal biotin on a linker: ado-ado)
[26] = plain residues with an end cap or a label only (N-terminal biotin on a linker: ahx)

Sequence of LIMK2, P53671 (P53671 143-248): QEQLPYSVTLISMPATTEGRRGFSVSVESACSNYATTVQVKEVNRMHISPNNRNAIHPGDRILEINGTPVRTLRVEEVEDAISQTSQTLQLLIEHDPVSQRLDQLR
Sequence of HTRA1, Q92743 (Q92743 360-477): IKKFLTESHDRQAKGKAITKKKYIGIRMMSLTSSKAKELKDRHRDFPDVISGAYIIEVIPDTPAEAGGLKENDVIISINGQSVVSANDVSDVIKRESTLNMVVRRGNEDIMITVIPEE
Sequence of MAGI2_2, Q86UL8 (Q86UL8 410-522): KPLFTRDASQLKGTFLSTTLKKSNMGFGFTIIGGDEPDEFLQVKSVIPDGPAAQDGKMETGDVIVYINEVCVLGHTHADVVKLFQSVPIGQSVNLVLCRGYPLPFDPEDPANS
Sequence of IL16_1, Q14005 (Q14005 210-306): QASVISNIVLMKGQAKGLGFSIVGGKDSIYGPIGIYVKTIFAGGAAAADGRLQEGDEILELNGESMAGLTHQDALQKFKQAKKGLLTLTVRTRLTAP
Sequence of GRIP2_6, Q9C0E4 (Q9C0E4 648-740): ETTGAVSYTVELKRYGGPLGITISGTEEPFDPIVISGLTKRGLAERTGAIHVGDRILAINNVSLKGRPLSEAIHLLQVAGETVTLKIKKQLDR
Sequence of FRMPD3, Q5JV73 (Q5JV73 12-100): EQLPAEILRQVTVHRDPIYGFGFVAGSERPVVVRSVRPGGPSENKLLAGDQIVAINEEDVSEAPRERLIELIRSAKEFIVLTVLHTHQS
Sequence of PDLIM1, O00151 (O00151 1-87): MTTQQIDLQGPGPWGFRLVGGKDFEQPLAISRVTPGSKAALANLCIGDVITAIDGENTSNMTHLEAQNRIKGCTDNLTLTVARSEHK
Sequence of Inadl_3, Q8NI35 (Q8NI35 359-469): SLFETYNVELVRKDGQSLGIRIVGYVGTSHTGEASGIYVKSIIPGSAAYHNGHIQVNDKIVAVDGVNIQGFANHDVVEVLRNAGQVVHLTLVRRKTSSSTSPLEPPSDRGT
Sequence of TJP1_2, Q07157 (Q07157 181-274): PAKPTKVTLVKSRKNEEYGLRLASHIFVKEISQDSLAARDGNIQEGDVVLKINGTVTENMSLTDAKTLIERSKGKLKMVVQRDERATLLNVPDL
Sequence of Inadl_4, Q8NI35 (Q8NI35 547-651): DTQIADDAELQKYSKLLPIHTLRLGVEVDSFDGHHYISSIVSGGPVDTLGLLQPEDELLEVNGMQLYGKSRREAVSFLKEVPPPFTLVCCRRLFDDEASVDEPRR
Sequence of MAGI3_2, Q5TCQ9 (Q5TCQ9 398-503): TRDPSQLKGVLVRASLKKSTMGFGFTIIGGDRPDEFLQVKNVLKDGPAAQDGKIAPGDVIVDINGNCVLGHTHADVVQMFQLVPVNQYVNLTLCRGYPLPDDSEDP

pKd [1, 25]: 3.83
pKd [2, 25]: below the threshold
pKd [3, 25]: below the threshold
pKd [4, 25]: below the threshold
pKd [5, 25]: below the threshold
pKd [6, 25]: below the threshold
pKd [7, 25]: below the threshold
pKd [8, 25]: below the threshold
pKd [9, 25]: 3.63
pKd [10, 25]: below the threshold
pKd [11, 25]: below the threshold
pKd [12, 25]: below the threshold
pKd [13, 25]: 4.09
pKd [14, 25]: 4.48
pKd [15, 25]: below the threshold
pKd [16, 25]: below the threshold
pKd [17, 25]: below the threshold
pKd [18, 25]: below the threshold
pKd [19, 25]: below the threshold
pKd [20, 25]: below the threshold
pKd [21, 25]: below the threshold
pKd [22, 25]: below the threshold
pKd [23, 25]: below the threshold
pKd [24, 25]: 4.07
Binder: TRKRSGEAAV [PFKM, P08237]

pKd [1, 26]: below the threshold
pKd [2, 26]: below the threshold
pKd [3, 26]: below the threshold
pKd [4, 26]: below the threshold
pKd [5, 26]: 3.81
pKd [6, 26]: below the threshold
pKd [7, 26]: below the threshold
pKd [8, 26]: below the threshold
pKd [9, 26]: below the threshold
pKd [10, 26]: below the threshold
pKd [11, 26]: below the threshold
pKd [12, 26]: below the threshold
pKd [13, 26]: below the threshold
pKd [14, 26]: below the threshold
pKd [15, 26]: below the threshold
pKd [16, 26]: below the threshold
pKd [17, 26]: below the threshold
pKd [18, 26]: below the threshold
pKd [19, 26]: below the threshold
pKd [20, 26]: below the threshold
pKd [21, 26]: below the threshold
pKd [22, 26]: below the threshold
pKd [23, 26]: below the threshold
pKd [24, 26]: below the threshold
Binder: EKQAKGDTEF [CACYBP, Q9HB71]

pKd [1, 25]: 4.49
pKd [2, 25]: below the threshold
pKd [3, 25]: 4.16
pKd [4, 25]: 4.22
pKd [5, 25]: 4.07
pKd [6, 25]: below the threshold
pKd [7, 25]: below the threshold
pKd [8, 25]: 4.49
pKd [9, 25]: below the threshold
pKd [10, 25]: below the threshold
pKd [11, 25]: below the threshold
pKd [12, 25]: 3.5
pKd [13, 25]: below the threshold
pKd [14, 25]: below the threshold
pKd [15, 25]: below the threshold
pKd [16, 25]: below the threshold
pKd [17, 25]: below the threshold
pKd [18, 25]: 3.53
pKd [19, 25]: below the threshold
pKd [20, 25]: 4.86
pKd [21, 25]: below the threshold
pKd [22, 25]: below the threshold
pKd [23, 25]: 4.2
pKd [24, 25]: below the threshold
Binder: SLNANEVEWF [RNF130, Q86XS8]

pKd [1, 25]: 3.93
pKd [2, 25]: below the threshold
pKd [3, 25]: below the threshold
pKd [4, 25]: 4.77
pKd [5, 25]: below the threshold
pKd [6, 25]: below the threshold
pKd [7, 25]: below the threshold
pKd [8, 25]: 4.3
pKd [9, 25]: 3.61
pKd [10, 25]: 3.55
pKd [11, 25]: below the threshold
pKd [12, 25]: below the threshold
pKd [13, 25]: 5.22
pKd [14, 25]: 5.64
pKd [15, 25]: below the threshold
pKd [16, 25]: below the threshold
pKd [17, 25]: below the threshold
pKd [18, 25]: below the threshold
pKd [19, 25]: below the threshold
pKd [20, 25]: 3.76
pKd [21, 25]: 3.71
pKd [22, 25]: 4.6
pKd [23, 25]: below the threshold
pKd [24, 25]: below the threshold
Binder: KPGKGSETVV [FZD4, Q9ULV1]

pKd [1, 25]: below the threshold
pKd [2, 25]: below the threshold
pKd [3, 25]: 4.07
pKd [4, 25]: below the threshold
pKd [5, 25]: below the threshold
pKd [6, 25]: below the threshold
pKd [7, 25]: 3.59
pKd [8, 25]: 4.61
pKd [9, 25]: below the threshold
pKd [10, 25]: below the threshold
pKd [11, 25]: below the threshold
pKd [12, 25]: below the threshold
pKd [13, 25]: below the threshold
pKd [14, 25]: below the threshold
pKd [15, 25]: below the threshold
pKd [16, 25]: below the threshold
pKd [17, 25]: below the threshold
pKd [18, 25]: below the threshold
pKd [19, 25]: below the threshold
pKd [20, 25]: below the threshold
pKd [21, 25]: below the threshold
pKd [22, 25]: below the threshold
pKd [23, 25]: 3.52
pKd [24, 25]: below the threshold
Binder: MHIQEKGFHV [EPHA6, Q9UF33]

pKd [1, 25]: 4.07
pKd [2, 25]: below the threshold
pKd [3, 25]: 3.94
pKd [4, 25]: 3.72
pKd [5, 25]: below the threshold
pKd [6, 25]: below the threshold
pKd [7, 25]: below the threshold
pKd [8, 25]: 4.12
pKd [9, 25]: below the threshold
pKd [10, 25]: below the threshold
pKd [11, 25]: below the threshold
pKd [12, 25]: below the threshold
pKd [13, 25]: below the threshold
pKd [14, 25]: below the threshold
pKd [15, 25]: below the threshold
pKd [16, 25]: below the threshold
pKd [17, 25]: below the threshold
pKd [18, 25]: below the threshold
pKd [19, 25]: 3.77
pKd [20, 25]: 4.65
pKd [21, 25]: below the threshold
pKd [22, 25]: 4.33
pKd [23, 25]: below the threshold
pKd [24, 25]: 4.77
Binder: AAVENKVTDL [PLXNB1, O43157]
